# Laboratory results from the RNAGym collection of RNA variant scans (doi:10.1021/acssynbio.7b00057).
# B1: Pistol ribozyme (parent)
# chain: GGGUCGUUGUUCCAUAAUCGCGUGGAUAUGGCACGCAAGUUUCUACCGGGCACCGUAAAUGUCCGACUGGAGCCGUUCGGGCGGCUAUAAACAGACCUCAGGCCCGAAGCGUGGCGGCACCUGCCGCCGGUGGUAAAAAAGAUCGGAAGAGCACACGUCU
# Variants of: B1
# Experiment: aptazyme ON/OFF ratio, guanine; higher = stronger switching; co-transcriptional cleavage with and without guanine
row,Variant,aptazyme ON/OFF ratio
1,GGGUCGCCGAACCAUAAUCGCGUGGAUAUGGCACGCAAGUUUCUACCGGGCACCGUAAAUGUCCGACUGGAGCCGUUCGGGCGGCUAUAAACAGACCUCAGGCCCGAAGCGUGGCGGCACCUGCCGCCGGUGGUAAAAAAGAUCGGAAGAGCACACGUCU [U7C U8C U10A U11A],1.63
2,GGGUCGCCUUGCUAUAAUCGCGUGGAUAUGGCACGCAAGUUUCUACCGGGCACCGUAAAUGUCCGACUGGAGCCGUUCGGGCGGCUAUAAACAGACCUCAGGCCCGAAGCGUGGCGGCACCUGCCGCCGGUGGUAAAAAAGAUCGGAAGAGCACACGUCU [U7C U8C G9U U11G C13U],1.16
3,GGGUCGCCUUGCGAUAAUCGCGUGGAUAUGGCACGCAAGUUUCUACCGGGCACCGUAAAUGUCCGACUGGAGCCGUUCGGGCGGCUAUAAACAGACCUCAGGCCCGAAGCGUGGCGGCACCUGCCGCCGGUGGUAAAAAAGAUCGGAAGAGCACACGUCU [U7C U8C G9U U11G C13G],1.05
4,GGGUCGCCUUGCAAUAAUCGCGUGGAUAUGGCACGCAAGUUUCUACCGGGCACCGUAAAUGUCCGACUGGAGCCGUUCGGGCGGCUAUAAACAGACCUCAGGCCCGAAGCGUGGCGGCACCUGCCGCCGGUGGUAAAAAAGAUCGGAAGAGCACACGUCU [U7C U8C G9U U11G C13A],1.21
5,GGGUCGCCGAUUUAUAAUCGCGUGGAUAUGGCACGCAAGUUUCUACCGGGCACCGUAAAUGUCCGACUGGAGCCGUUCGGGCGGCUAUAAACAGACCUCAGGCCCGAAGCGUGGCGGCACCUGCCGCCGGUGGUAAAAAAGAUCGGAAGAGCACACGUCU [U7C U8C U10A C12U C13U],1.03
6,GGGUCGCCGAUUGAUAAUCGCGUGGAUAUGGCACGCAAGUUUCUACCGGGCACCGUAAAUGUCCGACUGGAGCCGUUCGGGCGGCUAUAAACAGACCUCAGGCCCGAAGCGUGGCGGCACCUGCCGCCGGUGGUAAAAAAGAUCGGAAGAGCACACGUCU [U7C U8C U10A C12U C13G],1.06
7,GGGUCGCCGAUUAAUAAUCGCGUGGAUAUGGCACGCAAGUUUCUACCGGGCACCGUAAAUGUCCGACUGGAGCCGUUCGGGCGGCUAUAAACAGACCUCAGGCCCGAAGCGUGGCGGCACCUGCCGCCGGUGGUAAAAAAGAUCGGAAGAGCACACGUCU [U7C U8C U10A C12U C13A],1.06
8,GGGUCGCCGAUGGAUAAUCGCGUGGAUAUGGCACGCAAGUUUCUACCGGGCACCGUAAAUGUCCGACUGGAGCCGUUCGGGCGGCUAUAAACAGACCUCAGGCCCGAAGCGUGGCGGCACCUGCCGCCGGUGGUAAAAAAGAUCGGAAGAGCACACGUCU [U7C U8C U10A C12G C13G],1.12
9,GGGUCGCCGAUGUAUAAUCGCGUGGAUAUGGCACGCAAGUUUCUACCGGGCACCGUAAAUGUCCGACUGGAGCCGUUCGGGCGGCUAUAAACAGACCUCAGGCCCGAAGCGUGGCGGCACCUGCCGCCGGUGGUAAAAAAGAUCGGAAGAGCACACGUCU [U7C U8C U10A C12G C13U],1.07
10,GGGUCGCCGAUGAAUAAUCGCGUGGAUAUGGCACGCAAGUUUCUACCGGGCACCGUAAAUGUCCGACUGGAGCCGUUCGGGCGGCUAUAAACAGACCUCAGGCCCGAAGCGUGGCGGCACCUGCCGCCGGUGGUAAAAAAGAUCGGAAGAGCACACGUCU [U7C U8C U10A C12G C13A],1.12
11,GGGUCGCCGAAACAUAAUCGCGUGGAUAUGGCACGCAAGUUUCUACCGGGCACCGUAAAUGUCCGACUGGAGCCGUUCGGGCGGCUAUAAACAGACCUCAGGCCCGAAGCGUGGCGGCACCUGCCGCCGGUGGUAAAAAAGAUCGGAAGAGCACACGUCU [U7C U8C U10A U11A C12A],1.19
12,GGGUCGCCGAUAUAUAAUCGCGUGGAUAUGGCACGCAAGUUUCUACCGGGCACCGUAAAUGUCCGACUGGAGCCGUUCGGGCGGCUAUAAACAGACCUCAGGCCCGAAGCGUGGCGGCACCUGCCGCCGGUGGUAAAAAAGAUCGGAAGAGCACACGUCU [U7C U8C U10A C12A C13U],1.04
13,GGGUCGCCGAUAAAUAAUCGCGUGGAUAUGGCACGCAAGUUUCUACCGGGCACCGUAAAUGUCCGACUGGAGCCGUUCGGGCGGCUAUAAACAGACCUCAGGCCCGAAGCGUGGCGGCACCUGCCGCCGGUGGUAAAAAAGAUCGGAAGAGCACACGUCU [U7C U8C U10A C12A C13A],1.05
14,GGGUCGCCGAUAGAUAAUCGCGUGGAUAUGGCACGCAAGUUUCUACCGGGCACCGUAAAUGUCCGACUGGAGCCGUUCGGGCGGCUAUAAACAGACCUCAGGCCCGAAGCGUGGCGGCACCUGCCGCCGGUGGUAAAAAAGAUCGGAAGAGCACACGUCU [U7C U8C U10A C12A C13G],1.06
15,GGGUCGCCGAUACAUAAUCGCGUGGAUAUGGCACGCAAGUUUCUACCGGGCACCGUAAAUGUCCGACUGGAGCCGUUCGGGCGGCUAUAAACAGACCUCAGGCCCGAAGCGUGGCGGCACCUGCCGCCGGUGGUAAAAAAGAUCGGAAGAGCACACGUCU [U7C U8C U10A C12A],1.06
16,GGGUCGCCGAUGCAUAAUCGCGUGGAUAUGGCACGCAAGUUUCUACCGGGCACCGUAAAUGUCCGACUGGAGCCGUUCGGGCGGCUAUAAACAGACCUCAGGCCCGAAGCGUGGCGGCACCUGCCGCCGGUGGUAAAAAAGAUCGGAAGAGCACACGUCU [U7C U8C U10A C12G],1.08
17,GGGUCGCCGAUUCAUAAUCGCGUGGAUAUGGCACGCAAGUUUCUACCGGGCACCGUAAAUGUCCGACUGGAGCCGUUCGGGCGGCUAUAAACAGACCUCAGGCCCGAAGCGUGGCGGCACCUGCCGCCGGUGGUAAAAAAGAUCGGAAGAGCACACGUCU [U7C U8C U10A C12U],1.12
18,GGGUCGCCUUGAAAUAAUCGCGUGGAUAUGGCACGCAAGUUUCUACCGGGCACCGUAAAUGUCCGACUGGAGCCGUUCGGGCGGCUAUAAACAGACCUCAGGCCCGAAGCGUGGCGGCACCUGCCGCCGGUGGUAAAAAAGAUCGGAAGAGCACACGUCU [U7C U8C G9U U11G C12A C13A],1.19

row,Variant,aptazyme ON/OFF ratio
1,GGGUCGCCUUGAGAUAAUCGCGUGGAUAUGGCACGCAAGUUUCUACCGGGCACCGUAAAUGUCCGACUGGAGCCGUUCGGGCGGCUAUAAACAGACCUCAGGCCCGAAGCGUGGCGGCACCUGCCGCCGGUGGUAAAAAAGAUCGGAAGAGCACACGUCU [U7C U8C G9U U11G C12A C13G],1.11
2,GGGUCGCCUUGAUAUAAUCGCGUGGAUAUGGCACGCAAGUUUCUACCGGGCACCGUAAAUGUCCGACUGGAGCCGUUCGGGCGGCUAUAAACAGACCUCAGGCCCGAAGCGUGGCGGCACCUGCCGCCGGUGGUAAAAAAGAUCGGAAGAGCACACGUCU [U7C U8C G9U U11G C12A C13U],1.14
3,GGGUCGCCGAUCCAUAAUCGCGUGGAUAUGGCACGCAAGUUUCUACCGGGCACCGUAAAUGUCCGACUGGAGCCGUUCGGGCGGCUAUAAACAGACCUCAGGCCCGAAGCGUGGCGGCACCUGCCGCCGGUGGUAAAAAAGAUCGGAAGAGCACACGUCU [U7C U8C U10A],1.35
4,GGGUCGCCUUGUAAUAAUCGCGUGGAUAUGGCACGCAAGUUUCUACCGGGCACCGUAAAUGUCCGACUGGAGCCGUUCGGGCGGCUAUAAACAGACCUCAGGCCCGAAGCGUGGCGGCACCUGCCGCCGGUGGUAAAAAAGAUCGGAAGAGCACACGUCU [U7C U8C G9U U11G C12U C13A],1.1
5,GGGUCGCCUUGUUAUAAUCGCGUGGAUAUGGCACGCAAGUUUCUACCGGGCACCGUAAAUGUCCGACUGGAGCCGUUCGGGCGGCUAUAAACAGACCUCAGGCCCGAAGCGUGGCGGCACCUGCCGCCGGUGGUAAAAAAGAUCGGAAGAGCACACGUCU [U7C U8C G9U U11G C12U C13U],1.09
6,GGGUCGCCUUGUGAUAAUCGCGUGGAUAUGGCACGCAAGUUUCUACCGGGCACCGUAAAUGUCCGACUGGAGCCGUUCGGGCGGCUAUAAACAGACCUCAGGCCCGAAGCGUGGCGGCACCUGCCGCCGGUGGUAAAAAAGAUCGGAAGAGCACACGUCU [U7C U8C G9U U11G C12U C13G],1.07
7,GGGUCGCCUUGGGAUAAUCGCGUGGAUAUGGCACGCAAGUUUCUACCGGGCACCGUAAAUGUCCGACUGGAGCCGUUCGGGCGGCUAUAAACAGACCUCAGGCCCGAAGCGUGGCGGCACCUGCCGCCGGUGGUAAAAAAGAUCGGAAGAGCACACGUCU [U7C U8C G9U U11G C12G C13G],1.14
8,GGGUCGCCUUGGUAUAAUCGCGUGGAUAUGGCACGCAAGUUUCUACCGGGCACCGUAAAUGUCCGACUGGAGCCGUUCGGGCGGCUAUAAACAGACCUCAGGCCCGAAGCGUGGCGGCACCUGCCGCCGGUGGUAAAAAAGAUCGGAAGAGCACACGUCU [U7C U8C G9U U11G C12G C13U],1.05
9,GGGUCGCCUUGGAAUAAUCGCGUGGAUAUGGCACGCAAGUUUCUACCGGGCACCGUAAAUGUCCGACUGGAGCCGUUCGGGCGGCUAUAAACAGACCUCAGGCCCGAAGCGUGGCGGCACCUGCCGCCGGUGGUAAAAAAGAUCGGAAGAGCACACGUCU [U7C U8C G9U U11G C12G C13A],1.09
10,GGGUCGCCUUGACAUAAUCGCGUGGAUAUGGCACGCAAGUUUCUACCGGGCACCGUAAAUGUCCGACUGGAGCCGUUCGGGCGGCUAUAAACAGACCUCAGGCCCGAAGCGUGGCGGCACCUGCCGCCGGUGGUAAAAAAGAUCGGAAGAGCACACGUCU [U7C U8C G9U U11G C12A],1.19
11,GGGUCGCCUUGGCAUAAUCGCGUGGAUAUGGCACGCAAGUUUCUACCGGGCACCGUAAAUGUCCGACUGGAGCCGUUCGGGCGGCUAUAAACAGACCUCAGGCCCGAAGCGUGGCGGCACCUGCCGCCGGUGGUAAAAAAGAUCGGAAGAGCACACGUCU [U7C U8C G9U U11G C12G],1.19
12,GGGUCGCCUUGUCAUAAUCGCGUGGAUAUGGCACGCAAGUUUCUACCGGGCACCGUAAAUGUCCGACUGGAGCCGUUCGGGCGGCUAUAAACAGACCUCAGGCCCGAAGCGUGGCGGCACCUGCCGCCGGUGGUAAAAAAGAUCGGAAGAGCACACGUCU [U7C U8C G9U U11G C12U],1.19
13,GGGUCGCCGAUCUAUAAUCGCGUGGAUAUGGCACGCAAGUUUCUACCGGGCACCGUAAAUGUCCGACUGGAGCCGUUCGGGCGGCUAUAAACAGACCUCAGGCCCGAAGCGUGGCGGCACCUGCCGCCGGUGGUAAAAAAGAUCGGAAGAGCACACGUCU [U7C U8C U10A C13U],1.04
14,GGGUCGCCGAUCAAUAAUCGCGUGGAUAUGGCACGCAAGUUUCUACCGGGCACCGUAAAUGUCCGACUGGAGCCGUUCGGGCGGCUAUAAACAGACCUCAGGCCCGAAGCGUGGCGGCACCUGCCGCCGGUGGUAAAAAAGAUCGGAAGAGCACACGUCU [U7C U8C U10A C13A],1.06
15,GGGUCGCCGAUCGAUAAUCGCGUGGAUAUGGCACGCAAGUUUCUACCGGGCACCGUAAAUGUCCGACUGGAGCCGUUCGGGCGGCUAUAAACAGACCUCAGGCCCGAAGCGUGGCGGCACCUGCCGCCGGUGGUAAAAAAGAUCGGAAGAGCACACGUCU [U7C U8C U10A C13G],1.05
16,GGGUCGCCGAAAUAUAAUCGCGUGGAUAUGGCACGCAAGUUUCUACCGGGCACCGUAAAUGUCCGACUGGAGCCGUUCGGGCGGCUAUAAACAGACCUCAGGCCCGAAGCGUGGCGGCACCUGCCGCCGGUGGUAAAAAAGAUCGGAAGAGCACACGUCU [U7C U8C U10A U11A C12A C13U],1.13
17,GGGUCGCCGAAAAAUAAUCGCGUGGAUAUGGCACGCAAGUUUCUACCGGGCACCGUAAAUGUCCGACUGGAGCCGUUCGGGCGGCUAUAAACAGACCUCAGGCCCGAAGCGUGGCGGCACCUGCCGCCGGUGGUAAAAAAGAUCGGAAGAGCACACGUCU [U7C U8C U10A U11A C12A C13A],1.1
18,GGGUCGCCGAAAGAUAAUCGCGUGGAUAUGGCACGCAAGUUUCUACCGGGCACCGUAAAUGUCCGACUGGAGCCGUUCGGGCGGCUAUAAACAGACCUCAGGCCCGAAGCGUGGCGGCACCUGCCGCCGGUGGUAAAAAAGAUCGGAAGAGCACACGUCU [U7C U8C U10A U11A C12A C13G],1.11
